According to patent US20210363269A1 (ALX ONCOLOGY, published 2021):

T1: BL6 mouse SIRP-α (mouse (C57BL/6 strain), UniProt P97797 32-148)
T1 construct: also called C57BL/6
T1 sequence: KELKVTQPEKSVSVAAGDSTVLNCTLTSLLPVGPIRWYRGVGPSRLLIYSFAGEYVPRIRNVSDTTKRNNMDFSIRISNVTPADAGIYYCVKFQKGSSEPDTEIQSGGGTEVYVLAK

T2: cynomolgus SIRP-α (cynomolgus monkey, UniProt Q5TFQ8 30-148 (human entry), limits assumed)
T2 construct: also called cyno1
T2 chain: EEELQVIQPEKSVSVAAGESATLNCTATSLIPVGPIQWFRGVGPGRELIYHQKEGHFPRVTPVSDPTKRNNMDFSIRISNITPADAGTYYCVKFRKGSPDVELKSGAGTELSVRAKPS

T3: BALBc mouse SIRP-α (mouse (BALB/c strain))
T3 chain: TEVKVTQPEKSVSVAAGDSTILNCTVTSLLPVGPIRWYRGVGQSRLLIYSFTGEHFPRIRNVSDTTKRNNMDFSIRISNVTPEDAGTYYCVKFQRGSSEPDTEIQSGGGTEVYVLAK

T4: mouse 129 SIRP-α (mouse (129 strain), UniProt P97797 32-150)
T4 construct: also called m129
T4 chain: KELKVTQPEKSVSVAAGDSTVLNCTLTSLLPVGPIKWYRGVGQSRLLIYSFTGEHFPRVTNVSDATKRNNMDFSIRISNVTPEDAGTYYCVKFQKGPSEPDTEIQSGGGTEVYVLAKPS

T5: NOD mouse SIRP-α (mouse (NOD strain))
T5 chain: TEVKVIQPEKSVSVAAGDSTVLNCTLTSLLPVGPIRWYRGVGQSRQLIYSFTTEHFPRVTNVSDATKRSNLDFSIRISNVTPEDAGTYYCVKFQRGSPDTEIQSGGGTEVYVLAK


Assays:
human SIRP-α v1 [1] = molecular target: T6, human SIRP-α v1 (human, UniProt P78324 31-149); assay: SPR
T6 construct: also called Human v1; Human V1
T6 sequence (P78324 31-149 limits assumed): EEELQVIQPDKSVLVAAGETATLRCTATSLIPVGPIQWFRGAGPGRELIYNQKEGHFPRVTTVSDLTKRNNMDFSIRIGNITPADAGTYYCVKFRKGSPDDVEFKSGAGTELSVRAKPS
How it was run: (§1)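 KD values were derived as kd/ka from apparent rate constants obtained by globally fitting double-referenced data to a simple Langmuir model. The data came from a ProteOn XPR36 biosensor run at 25° C in PBS pH 7.4 with 0.01% Tween-20. There, purified antibodies sat on a GLC chip by amine coupling or on an NLC chip by biotinylated Protein A capture, and SIRP analytes were injected in one-shot kinetic mode at nominal concentrations set from A280 absorbance.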

human SIRP-α v2 [2] = molecular target: T7, human SIRP-α v2 (human); assay: SPR
T7 construct: also called Human v2; Human V2
T7 sequence (chain, as listed by the source limits assumed): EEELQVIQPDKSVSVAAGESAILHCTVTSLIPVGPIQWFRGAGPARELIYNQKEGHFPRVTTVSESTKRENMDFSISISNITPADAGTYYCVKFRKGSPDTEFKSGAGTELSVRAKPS
How it was run: as §1

BL6 mouse SIRP-α = molecular target: T1, BL6 mouse SIRP-α; assay: SPR, antibody on GLC chip
How it was run: (§2)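 SIRP analytes were run over antibody surfaces in PBS pH 7.4 with 0.01% Tween-20 at 25° C, using one-shot injections at 100, 33, 11, 3.7, 1.2 and 0 nM. The antibodies, purified by Protein A, had been amine-coupled (~1000 RU) to a GLC chip of a ProteOn XPR36 biosensor from an 80 nM solution in 10 mM sodium acetate pH 4.5. Association lasted 90 s at a flow of 100 μL/min, and dissociation lasted 1200 s. KD equals kd/ka, obtained by fitting double-referenced data globally to a Langmuir model.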

cynomolgus SIRP-α = molecular target: T2, cynomolgus SIRP-α; assay: SPR, antibody on GLC chip
How it was run: as §2

human SIRPβ isoform 1 = molecular target: T8, human SIRPβ isoform 1 (human, UniProt O00241 30-148); assay: SPR, antibody on GLC chip
T8 construct: also called Beta; Human SIRPb
T8 sequence (O00241 30-148 limits assumed): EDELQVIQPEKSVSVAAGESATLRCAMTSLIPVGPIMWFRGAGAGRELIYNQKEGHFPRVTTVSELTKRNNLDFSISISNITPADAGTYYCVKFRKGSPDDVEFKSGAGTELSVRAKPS
How it was run: as §2

human SIRP-α v1 [3] = molecular target: T6, human SIRP-α v1; assay: SPR, antibody on GLC chip
How it was run: as §2

human SIRPγ isoform 1 = molecular target: T9, human SIRPγ isoform 1 (human, UniProt Q9P1W8 29-147); assay: SPR, antibody on GLC chip
T9 construct: also called Gamma; Human SIRPg
T9 sequence (Q9P1W8 29-147 limits assumed): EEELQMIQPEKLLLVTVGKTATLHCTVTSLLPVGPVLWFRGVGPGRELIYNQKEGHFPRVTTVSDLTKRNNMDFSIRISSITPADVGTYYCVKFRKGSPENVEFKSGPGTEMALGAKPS
How it was run: as §2

human SIRP-α v2 [4] = molecular target: T7, human SIRP-α v2; assay: SPR, antibody on GLC chip
How it was run: as §2

BALBc mouse SIRP-α = molecular target: T3, BALBc mouse SIRP-α; assay: SPR, antibody on GLC chip
How it was run: as §2

mouse 129 SIRP-α = molecular target: T4, mouse 129 SIRP-α; assay: SPR Koff +/-
How it was run: as §1

NOD mouse SIRP-α = molecular target: T5, NOD mouse SIRP-α; assay: SPR, antibody on GLC chip
How it was run: as §2

Binder | Kd (human SIRP-α v1 [1]) [nM] | Kd (human SIRP-α v2 [2]) [nM] | binding result (BL6 mouse SIRP-α) | Kd (cynomolgus SIRP-α) [nM] | Kd (human SIRPβ isoform 1) [nM] | Kd (human SIRP-α v1 [3]) [nM] | Kd (human SIRPγ isoform 1) [nM] | Kd (human SIRP-α v2 [4]) [nM] | binding result (BALBc mouse SIRP-α) | binding result (mouse 129 SIRP-α) | binding result (NOD mouse SIRP-α) | Kd (BL6 mouse SIRP-α) [nM] | Kd (NOD mouse SIRP-α) [nM] | Kd (BALBc mouse SIRP-α) [nM]
antibody 136 variant, light chain wt / heavy chain Mut (antibody, V domains shown) VH: EVQLVESGGGVVQPGRSLRLSCAASGFTFSSYDVNWVRQAPGKGLEWVSLISGSGEIIYYADSVKGRFTISRDNSKNTLYLQMNSLRAEDTAVYYCAKENNRYRFFDDWGQGTLVTVSS VL: ETVLTQSPGTLTLSPGERATLTCRASQSVYTYLAWYQEKPGQAPRLLIYGASSRATGIPDRFSGSGSGTEFTLTISSLQSEDFAVYYCQQYYDRPPLTFGGGTKVEIK | – | – | – | – | 3.54 | 0.558 | 16.5 | 1.74 | – | – | – | 23.1 | 0.678 | 0.416
antibody 136 variant, light chain Mut_I2T / heavy chain Mut (antibody, V domains shown) VH: EVQLVESGGGVVQPGRSLRLSCAASGFTFSSYDVNWVRQAPGKGLEWVSLISGSGEIIYYADSVKGRFTISRDNSKNTLYLQMNSLRAEDTAVYYCAKENNRYRFFDDWGQGTLVTVSS VL: ETVLTQSPGTLSLSPGERATLSCRASQSVYTYLAWYQQKPGQAPRLLIYGASSRATGIPDRFSGSGSGTEFTLTISSLQSEDFAVYYCQQYYDRPPLTFGGGTKVEIK | – | – | – | – | 3.16 | 0.717 | 40 | 1.86 | – | – | – | 15.3 | 0.68 | 0.422

Continued by falling Kd (human SIRPβ isoform 1), values first:

Kd (human SIRP-α v1 [1]) [nM] | Kd (human SIRP-α v2 [2]) [nM] | binding result (BL6 mouse SIRP-α) | Kd (cynomolgus SIRP-α) [nM] | Kd (human SIRPβ isoform 1) [nM] | Kd (human SIRP-α v1 [3]) [nM] | Kd (human SIRPγ isoform 1) [nM] | Kd (human SIRP-α v2 [4]) [nM] | binding result (BALBc mouse SIRP-α) | binding result (mouse 129 SIRP-α) | binding result (NOD mouse SIRP-α) | Kd (BL6 mouse SIRP-α) [nM] | Kd (NOD mouse SIRP-α) [nM] | Kd (BALBc mouse SIRP-α) [nM] | Binder
– | – | – | 2.11 | 2.22 | 0.551 | 33.5 | 1.74 | – | – | – | 13.8 | 0.596 | 0.361 | antibody 136 variant, light chain Mut_I2T / heavy chain Mut_V34M (antibody, V domains shown) VH: EVQLVESGGGVVQPGRSLRLSCAASGFTFSSYDMNWVRQAPGKGLEWVSLISGSGEIIYYADSVKGRFTISRDNSKNTLYLQMNSLRAEDTAVYYCAKENNRYRFFDDWGQGTLVTVSS VL: ETVLTQSPGTLSLSPGERATLSCRASQSVYTYLAWYQQKPGQAPRLLIYGASSRATGIPDRFSGSGSGTEFTLTISSLQSEDFAVYYCQQYYDRPPLTFGGGTKVEIK
0.183 | 0.0799 | no binding | 0.112 | 0.342 | 0.183 | 0.267 | 0.0682 | no binding | no binding | – | – | – | – | antibody 119 (antibody, V domains shown, also called AB119; S119) VH: DVQLLESGGGVVQPGGSLRLSCAASGFSFSNFAMTWVRQAPGEGLEWVSTIGSGDTYYADSVKGRFTISRDNSKNTLYLQMNSLRAEDTAVYYCAKDSTVSWSGDFFDYWGLGTLVTVSS VL: EIVLTQSPATLSVSPGERATFSCRASQNVKNDLAWYQQRPGQAPRLLIYAARIRETGIPERFSGSGSGTEFTLTITSLQSEDFAVYYCQQYYDWPPFTFGGGTKVEIK
– | – | no binding | 0.127 | 0.188 | 0.192 | 0.733 | 0.0175 | no binding | – | no binding | – | – | – | antibody 135 variant, light chain Mut / heavy chain Mut (antibody, V domains shown) VH: EVQLVESGGGVVQPGGSLRLSCAASGFSFSIYAVSWVRQAPGKGLEWVSTIGADDTYYADSVKGRFTISRDNSKNTLYLQMNSLRAEDTAVYYCAKDSTVGWSGDFFDYWGQGTLVTVSS VL: EIVLTQSPATLSVSPGERVTLSCRASQNVRSDIAWYQQKPGQAPRLLIYAASSRDTGIPARFSGSGSGTDFTLTISSLQSEDFGVYYCQQYYDWPPFTFGGGTKVEIK
